Key:
[1] = test system: EphA2 having Myc-labeled C-terminal
[2] = test system: EphA2 (full-length type EphA2)
E-cadherin = E-cadherin (UniProt P12830)
[3] = test system: processing-resistant EphA2 mutant (EphA2 deleted at a site to be processed by MT1-MMP, FLAG-labeled C terminal)

E-cadherin, sequence (P12830 155-882): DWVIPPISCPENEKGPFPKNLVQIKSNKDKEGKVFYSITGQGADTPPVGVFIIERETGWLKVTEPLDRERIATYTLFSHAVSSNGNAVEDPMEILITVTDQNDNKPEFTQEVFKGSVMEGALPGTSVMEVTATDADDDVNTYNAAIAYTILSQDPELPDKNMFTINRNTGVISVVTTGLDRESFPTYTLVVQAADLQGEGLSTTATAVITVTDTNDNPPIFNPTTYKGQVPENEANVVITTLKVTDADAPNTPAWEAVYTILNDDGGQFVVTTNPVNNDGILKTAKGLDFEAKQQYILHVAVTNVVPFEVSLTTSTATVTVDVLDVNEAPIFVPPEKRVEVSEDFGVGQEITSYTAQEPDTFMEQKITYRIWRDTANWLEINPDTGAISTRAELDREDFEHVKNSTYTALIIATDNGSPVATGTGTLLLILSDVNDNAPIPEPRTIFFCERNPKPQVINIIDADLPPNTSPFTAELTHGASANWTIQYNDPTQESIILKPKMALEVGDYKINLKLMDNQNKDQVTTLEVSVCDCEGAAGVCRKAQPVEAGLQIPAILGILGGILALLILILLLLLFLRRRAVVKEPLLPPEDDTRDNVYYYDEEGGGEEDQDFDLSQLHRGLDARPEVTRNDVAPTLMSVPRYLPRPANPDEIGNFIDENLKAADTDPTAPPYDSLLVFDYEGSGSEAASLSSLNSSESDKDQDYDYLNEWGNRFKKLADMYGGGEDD

| Substance | EphA2 processed fragment, western blotting [1] | 65-kDa and 60-kDa processed fragments of EphA2 after MT1-MMP knockdown, IP-western [2] | processing of E-cadherin, western blotting (E-cadherin) | processed state of EphA2, western blotting [3] | EphA2 processed fragments, western blotting with Myc antibody [1] |
| --- | --- | --- | --- | --- | --- |
| MT2-MMP | a processed fragment of EphA2 (small arrow) was detected only in the MT1-MMP-introduced cells |  |  |  |  |
| MT5-MMP | a processed fragment of EphA2 (small arrow) was detected only in the MT1-MMP-introduced cells |  |  |  |  |
| membrane type-1 matrix metallproteinase (MT1-MMP), expressed in cells |  | Due to MT1-MMP knockdown, the 65-kDa and 60-kDa processed fragments of EphA2 disappeared | presence or absence of MT1-MMP expression caused no change in the processing of E-cadherin | the mutant deleted at a cleavage site showed resistance against processing by MT1-MMP | full-length type EphA2 (large arrow) and respective EphA2 processed fragments (small arrow) having a molecular weight of 65 and 60 kDa were detected |
| MT3-MMP | a processed fragment of EphA2 (small arrow) was detected only in the MT1-MMP-introduced cells |  |  |  |  |

Source: patent US20190064149
